Source: patent publication US20160046725A1

How the values were obtained:
[1] = molecular target: human Axl receptor on human tumor cells (UniProt P30530); test: cell-based or functional assay
[2] = molecular target: human Axl receptor on human tumor cells (UniProt P30530); test: flow cytometry on SN12C cells, untreated (No Ab), labelled with 9G4 isotype control
[3] = molecular target: human Axl receptor on human tumor cells (UniProt P30530); test: flow cytometry on SN12C cells treated 24 h with 9G4, labelled with 9G4 isotype control
[4] = molecular target: human Axl receptor on human tumor cells (UniProt P30530); test: quantitative flow cytometry (Qifikit) on SN12C cells
[5] = molecular target: human Axl receptor on human tumor cells (UniProt P30530); test: flow cytometry on SN12C cells, untreated (No Ab), labelled with MAB154
[6] = molecular target: human Axl receptor on human tumor cells (UniProt P30530); test: quantitative flow cytometry (Qifikit) on A431 cells
[7] = molecular target: human Axl receptor on human tumor cells (UniProt P30530); test: quantitative flow cytometry (Qifikit) on MDA-MB-435S cells
[8] = molecular target: human Axl receptor on human tumor cells (UniProt P30530); test: quantitative flow cytometry (Qifikit) on Panc1 cells
[9] = molecular target: human Axl receptor on human tumor cells (UniProt P30530); test: quantitative flow cytometry (Qifikit) on MDA-MB-231 cells
[10] = molecular target: human Axl receptor on human tumor cells (UniProt P30530); test: quantitative flow cytometry (Qifikit) on A172 cells
[11] = molecular target: human Axl receptor on human tumor cells (UniProt P30530); test: quantitative flow cytometry (Qifikit) on NCI-H125 cells
[12] = molecular target: human Axl receptor on human tumor cells (UniProt P30530); test: quantitative flow cytometry (Qifikit) on NCI-H226 cells
[13] = molecular target: human Axl receptor on human tumor cells (UniProt P30530); test: quantitative flow cytometry (Qifikit) on MCF7 cells
[14] = molecular target: human Axl receptor on human tumor cells (UniProt P30530); test: quantitative flow cytometry (Qifikit) on PC3 cells
[15] = molecular target: human Axl receptor on human tumor cells (UniProt P30530); test: quantitative flow cytometry (Qifikit) on DU-145 cells
[16] = molecular target: human Axl receptor on human tumor cells (UniProt P30530); test: quantitative flow cytometry (Qifikit) on Calu-1 cells

Sequence of human Axl receptor on human tumor cells (P30530 26-894 D266N): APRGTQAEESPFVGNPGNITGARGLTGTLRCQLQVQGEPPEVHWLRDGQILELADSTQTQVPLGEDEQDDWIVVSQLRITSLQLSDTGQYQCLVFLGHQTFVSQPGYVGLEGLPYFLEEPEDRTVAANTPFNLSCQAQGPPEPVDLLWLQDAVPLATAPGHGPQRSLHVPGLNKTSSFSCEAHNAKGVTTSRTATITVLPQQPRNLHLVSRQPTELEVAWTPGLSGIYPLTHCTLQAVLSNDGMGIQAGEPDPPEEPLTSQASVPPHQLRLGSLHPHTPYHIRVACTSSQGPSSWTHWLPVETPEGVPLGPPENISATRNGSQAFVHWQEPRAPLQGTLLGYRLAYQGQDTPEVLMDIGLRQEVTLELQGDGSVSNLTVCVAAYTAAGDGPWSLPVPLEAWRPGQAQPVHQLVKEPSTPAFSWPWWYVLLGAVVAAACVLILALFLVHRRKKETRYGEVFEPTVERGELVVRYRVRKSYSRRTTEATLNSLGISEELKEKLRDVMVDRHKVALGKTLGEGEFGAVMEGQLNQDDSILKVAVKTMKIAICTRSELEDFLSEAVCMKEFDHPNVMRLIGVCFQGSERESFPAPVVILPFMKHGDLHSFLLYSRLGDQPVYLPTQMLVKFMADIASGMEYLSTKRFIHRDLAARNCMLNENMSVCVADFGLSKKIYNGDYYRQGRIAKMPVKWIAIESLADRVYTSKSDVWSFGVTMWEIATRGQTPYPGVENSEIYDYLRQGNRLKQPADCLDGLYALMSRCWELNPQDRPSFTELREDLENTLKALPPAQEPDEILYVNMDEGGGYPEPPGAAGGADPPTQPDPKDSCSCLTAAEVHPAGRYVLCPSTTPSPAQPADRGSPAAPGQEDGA

| Substance | % remaining Axl [1] [%] | Δ (MFI No Ab 24 h - MFI Ab 24 h) [1] [MFI] | MFI at T24 h [2] [MFI] | MFI at T24 h [3] [MFI] | ABC (Qifikit) [4] [ABC] | Antigen binding capacity (Qifikit) [4] [ABC] | MFI at T24 h [5] [MFI] | ABC (Qifikit) [6] [ABC] | ABC (Qifikit) [7] [ABC] | ABC (Qifikit) [8] [ABC] | ABC (Qifikit) [9] [ABC] | ABC (Qifikit) [10] [ABC] | ABC (Qifikit) [11] [ABC] | ABC (Qifikit) [12] [ABC] | ABC (Qifikit) [13] [ABC] | ABC (Qifikit) [14] [ABC] | ABC (Qifikit) [15] [ABC] | ABC (Qifikit) [16] [ABC] |
| --- | --- | --- | --- | --- | --- | --- | --- | --- | --- | --- | --- | --- | --- | --- | --- | --- | --- | --- |
| 9G4 murine IgG1 isotype control antibody | 117 | -2 | 11 | 13 |  |  |  |  |  |  |  |  |  |  |  |  |  |  |
| MAB154 anti-Axl commercial antibody (R and D Systems) |  |  |  |  | > 100000 | > 100000 | 950 | 3950 | 17800 | 36800 | 61200 | 52400 | 5540 | 32100 | 71 | 8420 | 55300 | > 100000 |
